In experiment [1] the target is T1, CrkII^NSH3 (Homo sapiens, UniProt P46108).
T1 construct: CrkII^NSH3; UniProt P46108-1, residues 134–191; 8-His tag with TEV protease cleavage site (N); made in house; host or cells: E. coli C41 (DE3)
Nature of the experiment: SPR, CrkII NSH3 binding to immobilised PEAK proteins. The note with it: read-out: CrkII NSH3 SPR KD; interactor as analyte over biotinylated PEAK protein captured with biotin CAPture kit; Biacore 8K+, HBS-TP, 20 °C; steady-state fit; mean ± SD (N = 2); read-out: CrkII-SH2 SPR KD. On the procedure:
(§1) SPR binding studies of PEAK PRM peptides to CrkII^NSH3 were performed using a Biacore S200 Instrument (Cytiva). Purified CrkII^NSH3 was diluted to 5 µg ml^−1 in 10 mM sodium acetate pH 4.0 and amine coupled at 25 °C to a Series S CM5 sensor chip, in HBS-N running buffer (20 mM HEPES pH 7.4, 150 mM NaCl) to a final immobilization level of 1100–1400 response units (RU), followed by surface deactivation using 1 M ethanolamine. A blank activation/deactivation was used for the reference surface. Peptide binding studies were performed at 20 °C in HBS-TP running buffer (20 mM HEPES pH 7.4, 150 mM NaCl, 1 mM TCEP, 0.005% (v/v) Tween-P20). […] Peptide stocks were further diluted to in running buffer to 10 or 20 µM and prepared as a 11-point concentration series (2-fold serial dilution, […] for PEAK PRM peptides, or 20 µM–20 nM for PEAK tandem motif peptides). Samples were injected in a multi-cycle run (flow rate 30 µl min^−1, contact time of 60 s, dissociation 120 s) without regeneration. Sensorgrams were double referenced, and steady-state binding data fitted using a 1:1 binding model using Biacore S200 Evaluation Software (Cytiva, v. 1.1).
(§2) SPR binding studies of PEAK proteins to full length CrkII/Grb2 and sub-domains were performed using a Biacore 8K+ Instrument (Cytiva) and analyzed using Biacore Insight Evaluation Software (v. 3.0.12.15655). […] Binding studies and steady-state data analysis were performed as described for CrkII^NSH3 with the inclusion of an additional surface regeneration step (60 s injection of 1 M NaCl) between cycles.
A general note: Surface plasmon resonance follows binding to a sensor surface in real time, without labels.

The target of experiment [2] is T2, CrkII^SH2 (Homo sapiens, UniProt P46108).
T2 construct: CrkII^SH2; UniProt P46108-1, residues 6–120; 8-His tag with TEV protease cleavage site (N); made in house; host or cells: E. coli C41 (DE3)
Nature of the experiment: SPR, CrkII SH2 binding to immobilised PEAK proteins. Particulars: interactor as analyte over biotinylated PEAK protein (biotin CAPture); Biacore 8K+, HBS-TP with 500 mM NaCl, 20 °C; steady-state fit; mean ± S.E.M. (N = 3). As for the experimental part:
as §1
(§3) SPR binding studies of PEAK proteins to full length CrkII/Grb2 and sub-domains were performed using a Biacore 8K+ Instrument (Cytiva) and analyzed using Biacore Insight Evaluation Software (v. 3.0.12.15655). […]

Experiment [3] concerns the target T3, CrkII^FL monomer (Homo sapiens, UniProt P46108).
T3 construct: full length CrkII (CrkII^FL; UniProt P46108-1, residues 1–330); 8-His tag with TEV protease cleavage site (N); made in house; host or cells: E. coli C41 (DE3)
Nature of the experiment: SPR, CrkII FL monomer binding to immobilised PEAK proteins. Particulars: interactor as analyte over biotinylated PEAK protein (biotin CAPture); Biacore 8K+, HBS-TP with 500 mM NaCl, 20 °C; steady-state fit; mean ± SD (N = 2). As for the experimental part: as §1, §2

Experiment [4] has as its target T4, CrkII^FL dimer (Homo sapiens, UniProt P46108).
T4 construct: full length CrkII (CrkII^FL; UniProt P46108-1, residues 1–330); 8-His tag with TEV protease cleavage site (N); made in house; host or cells: E. coli C41 (DE3)
Nature of the experiment: SPR, CrkII FL dimer binding to immobilised PEAK proteins. The note with it: interactor as analyte over biotinylated PEAK protein (biotin CAPture); Biacore 8K+, HBS-TP with 500 mM NaCl, 20 °C; steady-state fit; mean ± SD (N = 2). As for the experimental part: as §1, §2

Experiment [5] concerns the target Grb2^SH2 (Homo sapiens, UniProt P62993). Description: SPR, Grb2 SH2 binding to immobilised PEAK proteins. Particulars: interactor as analyte over biotinylated PEAK protein (biotin CAPture); Biacore 8K+, HBS-TP with 500 mM NaCl, 20 °C; steady-state fit; mean ± S.E.M. (N = 3). On the procedure: as §1, §3
The target of experiment [6] is T5, Grb2^FL (Homo sapiens, UniProt P62993).
T5 construct: Grb2^FL; UniProt P62993-1, residues 1–217; 8-His tag with TEV protease cleavage site (N); made in house; host or cells: E. coli C41 (DE3)
Description: SPR, Grb2 FL binding to immobilised PEAK proteins. The note with it: interactor as analyte over biotinylated PEAK protein (biotin CAPture); Biacore 8K+, HBS-TP with 500 mM NaCl, 20 °C; steady-state fit; mean ± SD (N = 2) or S.E.M. (N = 3). As for the experimental part: as §1, §3

Experiment [7] concerns the target 14-3-3ɣ. Nature of the experiment: SPR, 14-3-3ɣ binding to immobilised PEAK proteins. Further details: species or system human. Particulars: 14-3-3ɣ analyte 0.46–1000 nM, multi-cycle, over immobilised biotinylated PEAK protein; Biacore 8K+, 20 °C; KD only an estimate (bivalent analyte model); N = 3. As for the experimental part: PEAK proteins and adapters proteins (full length or individual domains) were biotinylated using EZ-Link™ NHS-PEG4-Biotin (Thermo Fisher) at a 1:1 molar ratio (100 µM) for 1 h at room temperature, then excess biotin was removed by buffer exchange using a Zeba™ Spin Desalting Column (Thermo Fisher) into HBS-T buffer (20 mM HEPES pH 7.4, 150 mM NaCl, 1 mM TCEP).
SPR binding studies of PEAK proteins to full length CrkII/Grb2 and sub-domains were performed using a Biacore 8K+ Instrument (Cytiva) and analyzed using Biacore Insight Evaluation Software (v. 3.0.12.15655). […] Biotinylated PEAK proteins (with or without Src phosphorylation; 500 nM in HBS-TP) were immobilized using a biotin CAPture kit (Cytiva) in HBS-TP running buffer at 20 °C. Binding studies and steady-state data analysis were performed as described for CrkII^NSH3 with the inclusion of an additional surface regeneration step (60 s injection of 1 M NaCl) between cycles. For Grb2^FL, Grb2^SH2, CrkII^SH2, CrkII^FL monomer and CrkII^FL dimer, to reduce nonspecific interactions the HBS-TP running buffer was supplemented with additional NaCl to a final concentration of 500 mM.
Binding studies for 14-3-3ɣ were undertaken in the same way in multi cycle mode (8 point, 3-fold serial dilution series, 0.46–1000 nM, 60 s contact time, 300 s dissociation).

T1 sequence (P46108 134-191): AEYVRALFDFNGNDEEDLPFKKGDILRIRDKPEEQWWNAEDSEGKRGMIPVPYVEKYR
T3 sequence (P46108 whole entry, the tested form may be a part): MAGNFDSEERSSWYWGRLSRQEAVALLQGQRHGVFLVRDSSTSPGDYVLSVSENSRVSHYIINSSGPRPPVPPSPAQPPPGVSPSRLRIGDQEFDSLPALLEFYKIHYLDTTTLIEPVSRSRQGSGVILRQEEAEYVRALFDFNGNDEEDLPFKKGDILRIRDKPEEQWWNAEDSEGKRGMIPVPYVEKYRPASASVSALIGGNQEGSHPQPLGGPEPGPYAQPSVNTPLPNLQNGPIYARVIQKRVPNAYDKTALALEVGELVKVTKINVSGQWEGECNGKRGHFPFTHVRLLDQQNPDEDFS
T4 sequence (P46108 whole entry, the tested form may be a part): as above
T2 sequence (P46108 6-120): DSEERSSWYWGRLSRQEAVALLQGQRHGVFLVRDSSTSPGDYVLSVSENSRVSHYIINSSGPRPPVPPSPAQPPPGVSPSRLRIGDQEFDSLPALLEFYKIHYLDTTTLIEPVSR
T5 sequence (P62993 whole entry, the tested form may be a part): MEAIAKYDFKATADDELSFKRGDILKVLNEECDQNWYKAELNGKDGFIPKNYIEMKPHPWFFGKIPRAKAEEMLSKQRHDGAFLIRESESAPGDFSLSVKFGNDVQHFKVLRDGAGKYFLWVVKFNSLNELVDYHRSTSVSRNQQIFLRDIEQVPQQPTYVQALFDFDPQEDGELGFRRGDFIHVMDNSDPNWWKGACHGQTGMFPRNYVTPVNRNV
Sequence of Grb2^SH2 (P62993 60-152 limits assumed): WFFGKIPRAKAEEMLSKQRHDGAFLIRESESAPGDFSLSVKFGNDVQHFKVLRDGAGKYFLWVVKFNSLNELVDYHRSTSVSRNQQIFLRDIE

B1: PEAK1-IDR1: recombinant human PEAK1 residues 1082–1746, insect cell expressed (protein)
chain: LPELEREDGKEDISDPMDPNPCSATYSNLGQSRAAMIPPKQPRQPKGAVDDAIAFGGKTDQEAPNASQPTPPPLPKKMIIRANTEPISKDLQKSMESSLCVMANPTYDIDPNWDASSAGSSISYELKGLDIESYDSLERPLRKERPVPSAANSISSLTTLSIKDRFSNSMESLSSRRGPSCRQGRGIQKPQRQALYRGLENREEVVGKIRSLHTDALKKLAVKCEDLFMAGQKDQLRFGVDSWSDFRLTSDKPCCEAGDAVYYTASYAKDPLNNYAVKICKSKAKESQQYYHSLAVRQSLAVHFNIQQDCGHFLAEVPNRLLPWEDPDDPEKDEDDMEETEEDAKGETDGKNPKPCSEAASSQKENQGVMSKKQRSHVVVITREVPCLTVADFVRDSLAQHGKSPDLYERQVCLLLLQLCSGLEHLKPYHVTHCDLRLENLLLVHYQPGGTAQGFGPAEPSPTSSYPTRLIVSNFSQAKQKSHLVDPEILRDQSRLAPEIITATQYKKCDEFQTGILIYEMLHLPNPFDENPELKEREYTRADLPRIPFRSPYSRGLQQLASCLLNPNPSERILISDAKGILQCLLWGPREDLFQTFTACPSLVQRNTLLQNWLDIKRTLLMIKFAEKSLDREGGISLEDWLCAQYLAFATTDSLSCIVKILQHR
modifications: left off: His tag, N-terminal, state not stated
notes: recombinant human PEAK1 residues 1082–1746, insect cell expressed
Regarding B1, the Kd (commonly the constant that tells how readily two partners part at equilibrium) was 3.7 µM in experiment [1], 9.2 µM in experiment [3], 2030 nM in experiment [4] and more than 50 µM in experiment [6]. The “SPR KD, CrkII-SH2” value in experiment [2] is given as “No binding”. The “SPR KD, Grb2 SH2” value in experiment [5] was “No binding”. Also, in experiment [7], the “SPR KD, 14-3-3ɣ” value is reported as “No binding”.

B2: PEAK1-IDR1 (+ Src phosphorylation): PEAK1 residues 1082–1746 phosphorylated with recombinant Src kinase (protein)
chain: B1 chain
modifications: phosphotyrosine at Y1107 (by Src in vitro, shown by MS/MS); other Src sites not stated; biotin (EZ-Link NHS-PEG4-Biotin, 1:1 molar ratio); left off: His-tag, N-terminal, state not stated
notes: PEAK1 residues 1082–1746 phosphorylated with recombinant Src kinase
For B2, the values for the Kd in experiment [1], in experiment [3] and in experiment [4] were 4.11 µM, 1.5 µM and 1490 nM, respectively. In addition, the “SPR KD, 14-3-3ɣ” value in experiment [7] is “No binding”.

B3: PEAK2-IDR1: recombinant human PEAK2 residues 802–1406, insect cell expressed (protein)
chain: EDVSPSGPQQPPPLPQKKIVSRAASSPDGFFWTQGSPKPGTASPKLNLSHSETNVHDESHFSYSLSPGNRHHPVFSSSDPLEKAFKGSGHWLPAAGLAGNRGGCGSPGLQCKGAPSASSSQLSVSSQASTGSTQLQLHGLLSNISSKEGTYAKLGGLYTQSLARLVAKCEDLFMGGQKKELHFNENNWSLFKLTCNKPCCDSGDAIYYCATCSEDPGSTYAVKICKAPEPKTVSYCSPSVPVHFNIQQDCGHFVASVPSSMLSSPDAPKDPVPALPTHPPAQEQDCVVVITREVPHQTASDFVRDSAASHQAEPEAYERRVCFLLLQLCNGLEHLKEHGIIHRDLCLENLLLVHCTLQAGPGPAPAPAPAPAPAAAAPPCSSAAPPAGGTLSPAAGPASPEGPREKQLPRLIISNFLKAKQKPGGTPNLQQKKSQARLAPEIVSASQYRKFDEFQTGILIYELLHQPNPFEVRAQLRERDYRQEDLPPLPALSLYSPGLQQLAHLLLEADPIKRIRIGEAKRVLQCLLWGPRRELVQQPGTSEEALCGTLHNWIDMKRALMMMKFAEKAVDRRRGVELEDWLCCQYLASAEPGALLQSLKLLQLL
modifications: phosphorylated at the tandem site 14-3-3 motif (RAASSP) by LC MS/MS; left off: His tag, N-terminal, state not stated
notes: recombinant human PEAK2 residues 802–1406, insect cell expressed
On to B3, for which the Kd in experiment [1] came to 4.79 µM; in experiment [3], 13.7 µM; in experiment [4], 4220 nM. For the same molecule, the “SPR KD, CrkII-SH2” value in experiment [2] is “No binding”. For the same molecule, the “SPR KD, 14-3-3ɣ” value in experiment [7] is given as “No binding”.

B4: PEAK2-IDR1 (+ Src phosphorylation): PEAK2 residues 802–1406 phosphorylated with recombinant Src kinase (protein)
chain: B3 chain
modifications: phosphorylated with Src kinase, sites not stated; phosphorylation of the tandem site 14-3-3 motif (RAASSP) found by proteomic analysis; biotin (EZ-Link NHS-PEG4-Biotin, 1:1 molar ratio); left off: His
notes: PEAK2 residues 802–1406 phosphorylated with recombinant Src kinase
As to B4, the dissociation constant (Kd) is 5.2 µM in experiment [1], 2.12 µM in experiment [3] and 1380 nM in experiment [4]. For the same molecule, in experiment [7], the “SPR KD, 14-3-3ɣ” value was “No binding”.

The values above are taken from article PMC10279719 (Nature Communications, 2023).
